PMC5736220, “Using thermal scanning assays to test protein-protein interactions of inner-ear cadherins” (PLoS ONE, 2017)
Positions count from the first letter of the chain named. Names and notes keep the numbering of the source.

How the values were obtained:
Conditions in all cases: both partners purified
[1] = molecular target: T1, protocadherin-15 EC1+2 G16D, His-tagged (mouse, UniProt Q99PJ1 27-259, G16D); assay: SPR; Biacore T100, Ni-NTA chip, 6xHis pcdh15 immobilised, tag-free cdh23 0.25 to 30 μM injected, 25°C, SEC buffer; KD from binding isotherms (Biacore T100 evaluation software)
T1 construct: Protocadherin-15 (PCDH15), mouse, N-terminal fragment EC1+2; Mutant of m12 made with QuikChange; Held on the Ni-NTA chip by its His tag in SPR; also called pcdh15(G16D); not shown: His6, C-terminal, kept

[2] = molecular target: T2, protocadherin-15 EC1+2, wild type, His-tagged (mouse, UniProt Q99PJ1 27-259); assay: as above
T2 construct: Protocadherin-15 (PCDH15), mouse, N-terminal fragment EC1+2; pET21a, NdeI/XhoI; predicted molecular weight 27.5 kDa; Held on the Ni-NTA chip by its His tag in SPR; also called pcdh15; pcdh15(WT); not shown: His6, C-terminal, kept

[3] = molecular target: T3, protocadherin-15 EC1+2 Q165L, His-tagged (mouse, UniProt Q99PJ1 27-259, Q165L); assay: as above
T3 construct: Protocadherin-15 (PCDH15), mouse, N-terminal fragment EC1+2; Mutant of m12 made with QuikChange; Held on the Ni-NTA chip by its His tag in SPR; also called pcdh15(Q165L); not shown: His6, C-terminal, kept

[4] = molecular target: T1, protocadherin-15 EC1+2 G16D, His-tagged; assay: SPR; Biacore T100, Ni-NTA chip, 6xHis pcdh15 immobilised, tag-free cdh23 0.25 to 30 μM injected, 25°C, SEC buffer; global kinetic fit with EVILFIT (distribution model)
[5] = molecular target: T2, protocadherin-15 EC1+2, wild type, …; assay: as above
[6] = molecular target: T3, protocadherin-15 EC1+2 Q165L, His-tagged; assay: as above
[7] = molecular target: T1, protocadherin-15 EC1+2 G16D, His-tagged; assay: thermal scanning (thermal stability shift assay with SYPRO orange); pcdh15 fixed at 0.1 mg/mL (~4 μM), cdh23 0.1 to 0.5 mg/mL (~4 to 20 μM; cdh23:pcdh15 1:1 to 5:1); SEC buffer (20 mM Tris-HCl pH 7.5, 150 mM KCl, 50 mM NaCl, 2 mM CaCl2); 10 to 95°C in 0.2°C steps, 5 s equilibration; read-out: shift of the Tm of pcdh15 (ΔTm)
[8] = molecular target: T2, protocadherin-15 EC1+2, wild type, …; assay: as above
[9] = molecular target: T3, protocadherin-15 EC1+2 Q165L, His-tagged; assay: as above
[10] = molecular target: T4, protocadherin-15 EC1+2 I108N, His-tagged (mouse, UniProt Q99PJ1 27-259, I108N); assay: as above
T4 construct: Protocadherin-15 (PCDH15), mouse, N-terminal fragment EC1+2; Deafness-related missense mutation put into the mouse fragment m12 with QuikChange; also called pcdh15(I108N)

[11] = molecular target: T5, protocadherin-15 EC1+2 H91R, His-tagged (mouse, UniProt Q99PJ1 27-259, H91R); assay: as above
T5 construct: Protocadherin-15 (PCDH15), mouse, N-terminal fragment EC1+2; Mutant of m12 made with QuikChange; also called pcdh15(H91R)

[12] = molecular target: T2, protocadherin-15 EC1+2, wild type, …; assay: SEC; analytical, Superdex 75 3.2/3.0, SEC buffer, 4°C, 100 μL loop, 0.05 mL/min; complex read from a decrease in elution volume of the mixture

B1: cadherin-23 EC1+2 (residues 1-205), wild type, tagless (domain or fragment, mouse)
chain: QVNRLPFFTNHFFDTYLLISEDTPVGSSVTQLLARDMDNDPLVFGVSGEEASRFFAVEPDTGVVWLRQPLDRETKSEFTVEFSVSDHQGVITRKVNIQVGDVNDNAPTFHNQPYSVRIPENTPVGTPIFIVNATDPDLGAGGSVLYSFQPPSPFFAIDSARGIVTVIQELDYEVTQAYQLTVNATDQDKTRPLSTLANLAIIITDA
notes: an Ala residue included between CDH23 EC2 and the intein tag to improve cleavage efficiency; pTXB1, NdeI/SapI; That the added Ala stays on the C-terminus after thiol-induced cleavage, and that a start Met precedes residue 1, are surmised; also called tag-free cdh23; tagless cdh23
[1]
  Kd: 1110 ± 70 nM
[2]
  Kd: 1380 ± 360 nM
[3]
  Kd: 2600 nM
[4]
  Kd: 2000 ± 990 nM
  koff: 0.17 ± 0.01 s⁻¹
  kon: 94800 M⁻¹ s⁻¹
[5]
  Kd: 3720 ± 1650 nM
  koff: 0.2 ± 0.04 s⁻¹
  kon: 61900 M⁻¹ s⁻¹
[6]
  Kd: 3940 ± 1110 nM
  koff: 0.22 ± 0.04 s⁻¹
  kon: 55900 M⁻¹ s⁻¹

B2: cadherin-23 EC1+2 (residues 1-205) S76V, tagless (domain or fragment, mouse)
chain: B1 chain with S76V
notes: an Ala residue included between CDH23 EC2 and the intein tag to improve cleavage efficiency; Mutant of m8; That the added Ala stays on the C-terminus after cleavage is surmised; also called cdh23(S76V)
[2]
  Kd: 1160 ± 560 nM
[5]
  Kd: 2790 ± 880 nM
  koff: 0.18 ± 0.01 s⁻¹
  kon: 68800 M⁻¹ s⁻¹

B3: cadherin-23 EC1+2 (residues 1-205) F7E, tagless (domain or fragment, mouse)
chain: B1 chain with F7E
notes: an Ala residue included between CDH23 EC2 and the intein tag to improve cleavage efficiency; Mutant of m8; That the added Ala stays on the C-terminus after cleavage is surmised; also called cdh23(F7E)
[2]
  Kd: 1580 ± 30 nM
[5]
  Kd: 3250 ± 250 nM
  koff: 0.22 ± 0.04 s⁻¹
  kon: 66000 M⁻¹ s⁻¹

B4: cadherin-23 EC1+2 (residues 1-205) T15E, tagless (domain or fragment, mouse)
chain: B1 chain with T15E
notes: an Ala residue included between CDH23 EC2 and the intein tag to improve cleavage efficiency; Mutant of m8; That the added Ala stays on the C-terminus after cleavage is surmised; also called cdh23(T15E)
[1]
  Kd: 620 ± 110 nM
[2]
  Kd: 880 ± 60 nM
[4]
  Kd: 1420 ± 50 nM
  koff: 0.09 s⁻¹
  kon: 61400 M⁻¹ s⁻¹
[5]
  Kd: 2050 ± 100 nM
  koff: 0.11 ± 0.01 s⁻¹
  kon: 55100 M⁻¹ s⁻¹

B5: cadherin-23 EC1+2, wild type, His-tagged (domain or fragment, mouse)
chain: QVNRLPFFTNHFFDTYLLISEDTPVGSSVTQLLARDMDNDPLVFGVSGEEASRFFAVEPDTGVVWLRQPLDRETKSEFTVEFSVSDHQGVITRKVNIQVGDVNDNAPTFHNQPYSVRIPENTPVGTPIFIVNATDPDLGAGGSVLYSFQPPSPFFAIDSARGIVTVIQELDYEVTQAYQLTVNATDQDKTRPLSTLANLAIIITD
notes: Cadherin-23 (CDH23), mouse, N-terminal fragment EC1+2; pET21a, NdeI/XhoI; predicted molecular weight 23.8 kDa; also called cdh23; cdh23(WT)
[7]
  ΔTm of pcdh15 at cdh23:pcdh15 1:1: 3 ± 0.5 °C
  ΔTm of pcdh15 at cdh23:pcdh15 2:1: 4.5 ± 0.7 °C
  ΔTm of pcdh15 at cdh23:pcdh15 3:1: 5.6 °C
  ΔTm of pcdh15 at cdh23:pcdh15 4:1: 6.2 ± 0.1 °C
  ΔTm of pcdh15 at cdh23:pcdh15 5:1: 6.8 ± 0.4 °C
[8]
  ΔTm of pcdh15 at cdh23:pcdh15 1:1: 1.8 ± 0.8 °C
  ΔTm of pcdh15 at cdh23:pcdh15 2:1: 3.2 ± 0.7 °C
  ΔTm of pcdh15 at cdh23:pcdh15 3:1: 4.1 ± 0.8 °C
  ΔTm of pcdh15 at cdh23:pcdh15 4:1: 5 ± 0.7 °C
  ΔTm of pcdh15 at cdh23:pcdh15 5:1: 5.5 ± 0.8 °C
[9]
  ΔTm of pcdh15 at cdh23:pcdh15 1:1: 1.1 ± 0.4 °C
  ΔTm of pcdh15 at cdh23:pcdh15 2:1: 1.7 ± 0.7 °C
  ΔTm of pcdh15 at cdh23:pcdh15 3:1: 2.3 ± 0.6 °C
  ΔTm of pcdh15 at cdh23:pcdh15 4:1: 2.7 ± 0.9 °C
  ΔTm of pcdh15 at cdh23:pcdh15 5:1: 3.7 ± 1.1 °C
[10]
  ΔTm of pcdh15 at cdh23:pcdh15 1:1: 0 °C
  ΔTm of pcdh15 at cdh23:pcdh15 2:1: 0.2 ± 0.2 °C
  ΔTm of pcdh15 at cdh23:pcdh15 3:1: 0.4 ± 0.1 °C
  ΔTm of pcdh15 at cdh23:pcdh15 4:1: 0.4 ± 0.1 °C
  ΔTm of pcdh15 at cdh23:pcdh15 5:1: 0.5 °C

B6: cadherin-23 EC1+2 T79E, His-tagged (domain or fragment, mouse)
chain: B5 chain with T79E
notes: Cadherin-23 (CDH23), mouse, N-terminal fragment EC1+2; Mutant of m1 made with QuikChange; also called cdh23(T79E)
[11]
  ΔTm of pcdh15 at cdh23:pcdh15 1:1: 2.1 ± 0.4 °C
  ΔTm of pcdh15 at cdh23:pcdh15 2:1: 4.1 ± 0.5 °C
  ΔTm of pcdh15 at cdh23:pcdh15 3:1: 5.3 ± 1.8 °C
  ΔTm of pcdh15 at cdh23:pcdh15 4:1: 6 ± 1.8 °C
  ΔTm of pcdh15 at cdh23:pcdh15 5:1: 7.3 ± 1.3 °C

B7: cadherin-23 EC1+2 T15E, His-tagged (domain or fragment, mouse)
chain: B5 chain with T15E
notes: Cadherin-23 (CDH23), mouse, N-terminal fragment EC1+2; Mutant of m1 made with QuikChange; also called cdh23(T15E)
[7]
  ΔTm of pcdh15 at cdh23:pcdh15 1:1: 2.4 ± 0.4 °C
  ΔTm of pcdh15 at cdh23:pcdh15 2:1: 4.5 ± 0.8 °C
  ΔTm of pcdh15 at cdh23:pcdh15 3:1: 5.5 ± 0.7 °C
  ΔTm of pcdh15 at cdh23:pcdh15 4:1: 6.5 ± 1.2 °C
  ΔTm of pcdh15 at cdh23:pcdh15 5:1: 7.2 ± 1.1 °C
[8]
  ΔTm of pcdh15 at cdh23:pcdh15 1:1: 2.3 ± 0.4 °C
  ΔTm of pcdh15 at cdh23:pcdh15 2:1: 3.9 °C
  ΔTm of pcdh15 at cdh23:pcdh15 3:1: 4.8 ± 0.1 °C
  ΔTm of pcdh15 at cdh23:pcdh15 4:1: 6 ± 0.5 °C
  ΔTm of pcdh15 at cdh23:pcdh15 5:1: 6.7 ± 0.6 °C

B8: cadherin-23 EC1+2 T190W, His-tagged (domain or fragment, mouse)
chain: B5 chain with T190W
notes: Cadherin-23 (CDH23), mouse, N-terminal fragment EC1+2; Mutant of m1 made with QuikChange; also called cdh23(T190W)
[12]
  binding result: binds

B9: cadherin-23 EC1+2 S76V, His-tagged (domain or fragment, mouse)
chain: B5 chain with S76V
notes: Cadherin-23 (CDH23), mouse, N-terminal fragment EC1+2; Mutant of m1 made with QuikChange; also called cdh23(S76V)
[8]
  ΔTm of pcdh15 at cdh23:pcdh15 1:1: 1.7 ± 1 °C
  ΔTm of pcdh15 at cdh23:pcdh15 2:1: 3 ± 1.7 °C
  ΔTm of pcdh15 at cdh23:pcdh15 3:1: 4 ± 1.5 °C
  ΔTm of pcdh15 at cdh23:pcdh15 4:1: 5.1 ± 1.8 °C
  ΔTm of pcdh15 at cdh23:pcdh15 5:1: 5.4 ± 1.9 °C

B10: cadherin-23 EC1+2 F7E, His-tagged (domain or fragment, mouse)
chain: B5 chain with F7E
notes: Cadherin-23 (CDH23), mouse, N-terminal fragment EC1+2; Mutant of m1 made with QuikChange; also called cdh23(F7E)
[8]
  ΔTm of pcdh15 at cdh23:pcdh15 1:1: 1.7 ± 0.6 °C
  ΔTm of pcdh15 at cdh23:pcdh15 2:1: 4.8 ± 0.6 °C
  ΔTm of pcdh15 at cdh23:pcdh15 3:1: 5.5 ± 0.3 °C
  ΔTm of pcdh15 at cdh23:pcdh15 4:1: 5.9 ± 0.2 °C
  ΔTm of pcdh15 at cdh23:pcdh15 5:1: 7 ± 0.2 °C
